In the supplement of paper PMC9233669:
This sample holds only a part of the variants without activity.

What was measured:
biotinyl-Phe-oxazolone = assay: self-aminoacylation, catalytic enhancement (BFO) (fold over background); higher = more active; k-Seq, kA / k0A0; sequences stand for … in GGGAAUGGAUCCACAUCUACGAAUUC…UUCACUGCAGACUUGACGAAGCUG
Method in brief: (§1)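 Each biotinyl-aminoacyl-oxazolone, at 2–1250 μM, was incubated with mutagenized RNA pools (0.43 μM) carrying a 21-nt variable region. The 50 μL reactions contained HEPES/NaCl/KCl/MgCl2/CaCl2 buffer with 5% acetonitrile at pH 6.9–7.0 and ran for 90 minutes at room temperature. After streptavidin capture, RNA was measured by qPCR in triplicate and by Illumina sequencing, and catalytic enhancement was calculated as median kA over the uncatalyzed rate from a pseudo-first-order fit of per-sequence fraction reacted.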

biotinyl-Ile-oxazolone = assay: self-aminoacylation, catalytic enhancement (BIO) (fold over background); higher = more active; k-Seq, kA / k0A0; sequences stand for … in GGGAAUGGAUCCACAUCUACGAAUUC…UUCACUGCAGACUUGACGAAGCUG
Method in brief: as §1

biotinyl-Met-oxazolone = assay: self-aminoacylation, catalytic enhancement (BMO) (fold over background); higher = more active; k-Seq, kA / k0A0; sequences stand for … in GGGAAUGGAUCCACAUCUACGAAUUC…UUCACUGCAGACUUGACGAAGCUG
Method in brief: as §1

biotinyl-Val-oxazolone = assay: self-aminoacylation, catalytic enhancement (BVO) (fold over background); higher = more active; k-Seq, kA / k0A0; sequences stand for … in GGGAAUGGAUCCACAUCUACGAAUUC…UUCACUGCAGACUUGACGAAGCUG
Method in brief: as §1

biotinyl-Leu-oxazolone = assay: self-aminoacylation, catalytic enhancement (BLO) (fold over background); higher = more active; k-Seq, kA / k0A0; sequences stand for … in GGGAAUGGAUCCACAUCUACGAAUUC…UUCACUGCAGACUUGACGAAGCUG
Method in brief: as §1

biotinyl-Trp-oxazolone = assay: self-aminoacylation, catalytic enhancement (BWO) (fold over background); higher = more active; k-Seq, kA / k0A0; sequences stand for … in GGGAAUGGAUCCACAUCUACGAAUUC…UUCACUGCAGACUUGACGAAGCUG
Method in brief: as §1

| Sequence | self-aminoacylation (biotinyl-Phe-oxazolone) | self-aminoacylation (biotinyl-Ile-oxazolone) | self-aminoacylation (biotinyl-Met-oxazolone) | self-aminoacylation (biotinyl-Val-oxazolone) | self-aminoacylation (biotinyl-Leu-oxazolone) | self-aminoacylation (biotinyl-Trp-oxazolone) |
| --- | --- | --- | --- | --- | --- | --- |
| CUACUACAAACAACCGGUCUG [Fam1A.1 aminoacylation ribozyme variant] | 1.12 | 1.19 | 0.601 | 1.14 | 0.845 | 0.954 |
| CUACUUCAAUCAAUCAGUCUG [Fam1A.1 aminoacylation ribozyme variant] | 16.5 | 0.942 | 0.809 | 0.86 | 0.946 | 6.4 |
| AAGUCUGCUAAAAGUCGCAAG [Fam3.1 aminoacylation ribozyme variant] | 23.1 | 1.35 | 1.92 | 1.23 | 1.72 | 6.66 |
| AUUACCCUAGUCAUCGAAUGA [Fam2.1 aminoacylation ribozyme variant] | 0.87 | 0.919 | 1.02 | 1.06 | 0.924 | 0.469 |
| AUUCAACUAUGUCAUCGGGUG [Fam2.2 aminoacylation ribozyme variant] | 33.1 | 3.08 | 4.78 | 2.45 | 6.15 | 4.57 |
| AUUACCCUGGUCAUCGCGUGG [Fam2.1 aminoacylation ribozyme variant] | 35.6 | 2.8 | 3.88 | 3.14 | 6.77 | 5.28 |
| AAGUCUGCUAAUAGUCGCAGG [Fam3.1 aminoacylation ribozyme variant] | 5.31 | 1.7 | 2.07 | 1.44 | 2.25 | 1.97 |
| AAGUAUGCCAAUAGUCGCAAG [Fam3.1 aminoacylation ribozyme variant] | 2.34 | 2.21 | 1.77 | 1.46 | 1.53 | 1.43 |
| AUUCACCUAGGUCCUCGGGUG [Fam2.2 aminoacylation ribozyme variant] | 30.2 | 3.08 | 4.59 | 3.13 | 5.91 | 4.22 |
| AUCCACCUAGGUCAACGGGUG [Fam2.2 aminoacylation ribozyme variant] | 30.3 | 2.4 | 3.17 | 3.34 | 4.15 | 4.49 |
| CUACUUCAAAAAAUCGGUCUU [Fam1A.1 aminoacylation ribozyme variant] | 5.8 | 1.02 | 0.966 | 0.807 | 1.05 | 4.11 |
| CCACAGUUCAAGCAAUCAGUC [Fam1B.1 aminoacylation ribozyme variant] | 1.73 | 0.829 | 0.662 | 0.781 | 0.76 | 0.814 |
| CCGCACUUCAAGCAAUGGGUC [Fam1B.1 aminoacylation ribozyme variant] | 1.13 | 0.918 | 0.802 | 1.21 | 1.04 | 1.08 |
| ACACACUUCAAGCAAUCGGCC [Fam1B.1 aminoacylation ribozyme variant] | 4 | 2.7 | 2.21 | 2.57 | 2.54 | 6.35 |
| GUUCACCUAGGUCAUCGGGUG [Fam2.2 aminoacylation ribozyme variant] | 180 | 13.7 | 25.5 | 12.5 | 32.5 | 20.1 |
| AUUACUCUGGUCAUGGAGUGA [Fam2.1 aminoacylation ribozyme variant] | 3.58 | 2.42 | 3.28 | 2.05 | 3.98 | 3.35 |
| CCACACUUCGAGCAAUCGGAC [Fam1B.1 aminoacylation ribozyme variant] | 0.331 | 0.916 | 0.897 | 1.67 | 0.935 | 0.929 |
| CUUCACCUAGGUCAUGGGGUG [Fam2.2 aminoacylation ribozyme variant] | 11.6 | 2.5 | 2.84 | 2.7 | 4.06 | 3.7 |
| AUGCUUGCUAAUAGUCGCAAG [Fam3.1 aminoacylation ribozyme variant] | 3.19 | 1.81 | 1.61 | 1.32 | 1.33 | 1.99 |
| AAGUUUGCUAAUAGUAGCAAC [Fam3.1 aminoacylation ribozyme variant] | 1.08 | 1.09 | 0.942 | 1.15 | 0.631 | 0.859 |
| CUUCACCUAGGUCAUCCGGUG [Fam2.2 aminoacylation ribozyme variant] | 34.5 | 5.77 | 6.47 | 4.94 | 8.19 | 6.39 |
| AUUACCCGGGUCAGCGAGUGA [Fam2.1 aminoacylation ribozyme variant] | 55.5 | 5.75 | 8.03 | 5.24 | 7.97 | 10.2 |
| AUUAUACUGGUCAUCGAGUGA [Fam2.1 aminoacylation ribozyme variant] | 6.45 | 2.91 | 4.91 | 2.56 | 5.28 | 5.99 |
| AAGUUUCCUAAUAUUCGCAAG [Fam3.1 aminoacylation ribozyme variant] | 0.549 | 0.935 | 0.987 | 0.841 | 0.935 | 0.649 |
| AUUCACCUGUGUCAUCGGGUG [Fam2.2 aminoacylation ribozyme variant] | 28.1 | 5.71 | 10.8 | 6.51 | 15.7 | 8.96 |
| AUUCACCUAGGUCAUGUGGUG [Fam2.2 aminoacylation ribozyme variant] | 20 | 2.18 | 2.95 | 2.1 | 3.91 | 2.98 |

| Sequence | self-aminoacylation (biotinyl-Phe-oxazolone) | self-aminoacylation (biotinyl-Ile-oxazolone) | self-aminoacylation (biotinyl-Met-oxazolone) | self-aminoacylation (biotinyl-Val-oxazolone) | self-aminoacylation (biotinyl-Leu-oxazolone) | self-aminoacylation (biotinyl-Trp-oxazolone) |
| --- | --- | --- | --- | --- | --- | --- |
| AUUCACCUAGGUCCACGGGUG [Fam2.2 aminoacylation ribozyme variant] | 48.5 | 3.85 | 7.25 | 4.27 | 9.94 | 6.34 |
| AUUACGCAGGUCAUCGAGUGA [Fam2.1 aminoacylation ribozyme variant] | 3.59 | 2.73 | 3.04 | 2.45 | 3.44 | 5.06 |
| CUACGUCAAACAAUCGGUCAG [Fam1A.1 aminoacylation ribozyme variant] | 0.761 | 0.855 | 0.917 | 0.797 | 1.12 | 0.909 |
| AUUCACUUAGGUCAUCGGAUG [Fam2.2 aminoacylation ribozyme variant] | 0.46 | 0.701 | 0.766 | 0.714 | 0.579 | 0.528 |
| AUUCACCUACGUCAGCGGGUG [Fam2.2 aminoacylation ribozyme variant] | 31.4 | 2.95 | 4.72 | 2.71 | 6.17 | 4.14 |
| AUUCACCUAGGCCAUCGGGUU [Fam2.2 aminoacylation ribozyme variant] | 5.49 | 1.34 | 1.52 | 1.31 | 1.03 | 0.76 |
| AUUACCCUGGUCAACGAGUAA [Fam2.1 aminoacylation ribozyme variant] | 1.01 | 1.29 | 1.19 | 1.44 | 1.53 | 0.972 |
| AUUUAACUAGGUCAUCGGGUG [Fam2.2 aminoacylation ribozyme variant] | 31.4 | 2.6 | 4.3 | 2.72 | 5.03 | 3.75 |
| AUUAACCUGGUCAUCGAAUGA [Fam2.1 aminoacylation ribozyme variant] | 0.933 | 1.07 | 0.959 | 1.07 | 1.09 | 0.742 |
| CCACACGUCAAGCAAUCGAUC [Fam1B.1 aminoacylation ribozyme variant] | 0.631 | 0.667 | 0.657 | 0.921 | 0.62 | 0.645 |
| CCCCACUUCAAGCGAUCGGUC [Fam1B.1 aminoacylation ribozyme variant] | 5.13 | 1.69 | 2.53 | 2.02 | 1.68 | 4.88 |
| AUUUCCCUGGUCACCGAGUGA [Fam2.1 aminoacylation ribozyme variant] | 66.2 | 3.79 | 8.77 | 4.43 | 8.24 | 9.27 |
| AACUUUGCUAAUAGUCCCAAG [Fam3.1 aminoacylation ribozyme variant] | 3.69 | 1.92 | 1.56 | 1.64 | 1.6 | 1.51 |
| AACUUUGCUAGUAGUCGCAAG [Fam3.1 aminoacylation ribozyme variant] | 3.31 | 2.68 | 2.63 | 2.67 | 2.9 | 3.53 |
| CCACAUUUCAAGCAAUCAGUC [Fam1B.1 aminoacylation ribozyme variant] | 1.71 | 1 | 0.755 | 1.1 | 0.906 | 0.884 |
| CUACAUCAAACAAUCGGUCUA [Fam1A.1 aminoacylation ribozyme variant] | 1.61 | 0.669 | 0.802 | 0.922 | 0.58 | 0.755 |
| AUUCACCUAGCUCAUCGGGCG [Fam2.2 aminoacylation ribozyme variant] | 11.7 | 2.26 | 2.3 | 2.57 | 2.33 | 1.8 |
| AUUCCCCUGGUCAUCGCGUGA [Fam2.1 aminoacylation ribozyme variant] | 213 | 12.2 | 22.1 | 15 | 28.2 | 26.8 |
| CUAAUUCAAACAAUCGGUCCG [Fam1A.1 aminoacylation ribozyme variant] | 0.604 | 0.553 | 0.575 | 0.539 | 0.732 | 0.513 |
| CCACACUUCAACCAAUCGGUA [Fam1B.1 aminoacylation ribozyme variant] | 1.08 | 1.1 | 1.56 | 1.1 | 0.859 | 1.63 |
| CCACACUUCAAGCAAUCGCGC [Fam1B.1 aminoacylation ribozyme variant] | 6.7 | 2.08 | 2.16 | 3.35 | 3.04 | 2.44 |
| CUACACUUCAAGCAAUCGGUA [Fam1B.1 aminoacylation ribozyme variant] | 1.37 | 0.739 | 0.709 | 0.65 | 0.755 | 0.846 |
| AAGUUUGCUAUUAGGCGCAAG [Fam3.1 aminoacylation ribozyme variant] | 0.81 | 0.746 | 0.591 | 0.681 | 0.546 | 0.841 |
| CCACACUUCAAGCAAUCGUUC [Fam1B.1 aminoacylation ribozyme variant] | 1.31 | 0.714 | 0.57 | 0.845 | 0.579 | 0.675 |
| CCACACUUCAAGCAAUCGGGU [Fam1B.1 aminoacylation ribozyme variant] | 0.915 | 1.51 | 1.41 | 1.8 | 1.87 | 1.06 |
